Laboratory results published in patent US20210206825A1 (published 2021).

How the values were obtained:
[1] = biological target: human EGFR on cells (human, UniProt P00533 25-1210); test: cell-based or functional assay
[2] = biological target: human c-Met on cells (human, UniProt P08581 25-1390); test: cell-based or functional assay
Chain of human c-Met on cells (P08581 other isoform, or with tags, fused parts or gaps limits assumed): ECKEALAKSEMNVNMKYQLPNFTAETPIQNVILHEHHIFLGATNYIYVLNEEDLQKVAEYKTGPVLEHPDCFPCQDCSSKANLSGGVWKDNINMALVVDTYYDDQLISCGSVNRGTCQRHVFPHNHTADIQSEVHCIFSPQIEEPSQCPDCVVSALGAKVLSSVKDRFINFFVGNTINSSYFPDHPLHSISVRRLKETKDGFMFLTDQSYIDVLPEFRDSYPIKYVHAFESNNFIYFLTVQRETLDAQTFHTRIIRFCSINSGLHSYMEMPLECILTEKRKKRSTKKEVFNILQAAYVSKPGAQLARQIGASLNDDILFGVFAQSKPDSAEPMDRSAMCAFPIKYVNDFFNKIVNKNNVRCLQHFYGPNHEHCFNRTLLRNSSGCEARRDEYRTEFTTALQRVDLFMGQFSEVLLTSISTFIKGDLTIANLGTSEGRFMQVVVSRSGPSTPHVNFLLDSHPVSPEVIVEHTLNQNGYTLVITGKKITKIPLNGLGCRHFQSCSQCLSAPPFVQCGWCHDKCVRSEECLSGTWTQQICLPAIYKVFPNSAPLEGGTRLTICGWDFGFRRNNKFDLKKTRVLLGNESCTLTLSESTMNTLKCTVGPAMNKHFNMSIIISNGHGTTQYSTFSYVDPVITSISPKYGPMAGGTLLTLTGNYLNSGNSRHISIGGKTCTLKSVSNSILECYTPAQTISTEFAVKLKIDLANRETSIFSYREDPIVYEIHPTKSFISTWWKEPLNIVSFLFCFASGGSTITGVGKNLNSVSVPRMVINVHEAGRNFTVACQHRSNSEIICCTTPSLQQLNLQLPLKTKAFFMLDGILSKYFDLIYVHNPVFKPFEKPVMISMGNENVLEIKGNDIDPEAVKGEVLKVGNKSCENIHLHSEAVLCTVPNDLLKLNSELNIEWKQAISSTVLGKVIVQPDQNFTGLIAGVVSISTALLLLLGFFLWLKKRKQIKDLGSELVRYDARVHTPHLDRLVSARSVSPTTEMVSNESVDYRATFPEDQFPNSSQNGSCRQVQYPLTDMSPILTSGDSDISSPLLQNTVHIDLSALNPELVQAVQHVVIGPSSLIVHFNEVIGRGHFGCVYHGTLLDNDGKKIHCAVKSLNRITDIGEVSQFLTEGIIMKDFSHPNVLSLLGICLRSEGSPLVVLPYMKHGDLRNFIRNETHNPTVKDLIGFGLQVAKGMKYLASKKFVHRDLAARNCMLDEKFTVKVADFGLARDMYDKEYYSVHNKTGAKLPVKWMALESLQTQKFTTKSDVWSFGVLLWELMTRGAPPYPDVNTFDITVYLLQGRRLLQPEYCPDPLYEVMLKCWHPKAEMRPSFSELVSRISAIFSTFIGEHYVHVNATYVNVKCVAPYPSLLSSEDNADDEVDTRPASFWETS

Binder	Phospho-EGFR IC50 (A431 cells, Tyr1173) [1]	inhibition of c-Met phosphorylation in NCI-H292 cells (IC50) [2]
P54CR4-31 (designed binder, not shown: small tags and cut ends) LPAPKNLVVSEVTEDSLRLSWTAPDAAFDSFLIQYQESEKVGEAINLTVPGSERSYDLTGLKPGTEYTVSIYGVLGSYVFEHDVMLPLSAEFTT	179 nM	
P53A1R5-17 (designed binder, not shown: small tags and cut ends) LPAPKNLVVSEVTEDSLRLSWADPHGFYDSFLIQYQESEKVGEAINLTVPGSERSYDLTGLKPGTEYTVSIYGVHNVYKDTNMRGLPLSAEFTT	> 2500 nM	
P54AR4-73 (designed binder, not shown: small tags and cut ends) LPAPKNLVVSEVTEDSLRLSWTWPYADLDSFLIQYQESEKVGEAINLTVPGSERSYDLTGLKPGTEYTVSIYGVHNVYKDTNMRGLPLSAEFTT	141 nM	
P54AR4-17 (designed binder, not shown: small tags and cut ends) LPAPKNLVVSEVTEDSLRLSWTYDRDGYDSFLIQYQESEKVGEAINLTVPGSERSYDLTGLKPGTEYTVSIYGVHNVYKDTNMRGLPLSAEFTT	184 nM	
P54AR4-83 (designed binder, not shown: small tags and cut ends) LPAPKNLVVSEVTEDSLRLSWDDPWAFYESFLIQYQESEKVGEAINLTVPGSERSYDLTGLKPGTEYTVSIYGVHNVYKDTNMRGLPLSAEFTT	18 nM	
P54AR4-48 (designed binder, not shown: small tags and cut ends) LPAPKNLVVSEVTEDSLRLSWDDPRGFYESFLIQYQESEKVGEAINLTVPGSERSYDLTGLKPGTEYTVSIYGVHNVYKDTNMRGLPLSAEFTT	170 nM	
P114AR5P74-A5 (designed binder, not shown: small tags and cut ends) LPAPKNLVVSRVTEDSARLSWTAPDAAFDSFWIRYDEVVVGGEAIVLTVPGSERSYDLTGLKPGTEYYVNILGVKGGSISVPLSAIFTT		610 nM
